Molecular target: the molecule itself
Assay: native MS

B1: His-MukF (natural protein, E. coli, UniProt P60293 1-440, looked up)
chain: MSEFSQTVPELVAWARKNDFSISLPVDRLSFLLAVATLNGERLDGEMSEGELVDAFRHVSDAFEQTSETIGVRANNAINDMVRQRLLNRFTSEQAEGNAIYRLTPLGIGITDYYIRQREFSTLRLSMQLSIVAGELKRAADAAEEGGDEFHWHRNVYAPLKYSVAEIFDSIDLTQRLMDEQQQQVKDDIAQLLNKDWRAAISSCELLLSETSGTLRELQDTLEAAGDKLQANLLRIQDATMTHDDLHFVDRLVFDLQSKLDRIISWGQQSIDLWIGYDRHVHKFIRTAIDMDKNRVFAQRLRQSVQTYFDEPWALTYANADRLLDMRDEEMALRDEEVTGELPEDLEYEEFNEIREQLAAIIEEQLAVYKTRQVPLDLGLVVREYLSQYPRARHFDVARIVIDQAVRLGVAQADFTGLPAKWQPINDYGAKVQAHVIDKY
binding result: binds

Reference: doi:10.1101/2021.04.12.439405 (bioRxiv, 2021)
